Results reported in the supplement of paper PMC12042874.
± gives the uncertainty stated by the source.

Experiment: amyloid nucleation score (Sup35N fusion, yeast selection) (log enrichment); library NNK1; higher = more nucleation; inactive = no reads after selection
Procedure, shortened: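 Plasmid inserts were Illumina-sequenced at input and output from psi-negative yeast expressing Sup35N fused to peptides of 20 random codons. The yeast were induced with 100 μM copper sulfate for 24 hours and grown 7 days at 30°C on medium lacking adenine and uracil, and sequences with under 100 input reads were excluded. Nucleation score is the DiMSum log enrichment of output over input reads, centred on the mode score of non-aggregating sequences.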

Substance | amyloid nucleation score
GRTFVHSLWACNNSYCSL | 6.85 ± 0.088
NYVIGRVIISMYGNDVTRLP | 4.23 ± 0.095
GWQGL | -0.202 ± 0.53
NSDNSGWWRLLYIVESGISS | 0.019 ± 1.4
GKPDKVHARGWFTLVNRWLR | 0.399 ± 0.73
RMRATLDLSFWFGKEQYARV | 0.389 ± 0.45
CRWSVLGREFSSQFVCWEDW | -0.59 ± 0.54
IDMTQGMRLQWMFNRALLCW | 0.813 ± 0.72
NYVGWLLCASILVRYNGTLE | 1.26 ± 0.77
CCPRYMSIDSIDDRFYDKSF | inactive
MSFSPLLFVLATFCFGLWCW | -0.402 ± 0.78
NSCFQSSIYVTSYTWECSP | inactive
PIYGFCSIALGSMLIIPRLL | -1.05 ± 0.77
ISRSNTLYAIFCARPAKVSL | -0.235 ± 0.6
LFQCASWM | -0.024 ± 0.29
LSRNVVGAFGSGHWRADRAA | 0.256 ± 0.64
YTTASDNHVWSWLEYWVRVI | 0.368 ± 0.56
CGCCARWNYIIMMGWGGCVL | 0.096 ± 0.69
RRFEWFAGHCGIVDLPLGVG | 0.568 ± 0.97
ISHLDG | -1.04 ± 2.4
LMQSCWSFHYNRLASLLRHT | -0.316 ± 0.88
CYEEPRMPNFFAVFYNSMLE | 0.144 ± 0.41
LAGMMHAPVVLGLWSCDGDG | -0.974 ± 2.4
ILMFWSPVGSRLTLSTSKLQ | -0.234 ± 1.6
LSGWRYMVKA | 0.039 ± 0.41

Substance | amyloid nucleation score
HFCMGWVYLPELMYRFYMCF | -0.494 ± 0.35
CEGMVIMVGRVLRTSYLYNL | 0.001 ± 0.61
SIVGWCICLREFSVRFSYAE | 5.48 ± 0.075
KYGEVLLVTYTNP | 0.577 ± 0.53
FYLGPCYAVIWVNFQLPLGV | 0.596 ± 0.33
SIVETAVVSKYVERSYGQEG | -0.437 ± 0.36
NVMCAGYIIMGATMYKKWVM | 0.902 ± 0.29
TSPEVLRAIVSTSLFCCILR | -0.724 ± 2.4
LLCFIIILCSRELNVDA | 0.279 ± 1.2
EYLAFDVPNWVGFLGSLWNM | -0.064 ± 0.8
FCRKSQEKYWVPFK | -0.667 ± 1
LIDRCWMAGRAFNLLMF | -0.331 ± 0.76
YNFCILCSSPIIVFAAPVQR | 8.034 ± 0.051
NVSSIFITQY | inactive
LISHPFDPLIKVGDIQMYSF | 0.012 ± 0.61
AVWSRRTCWGLRKQSGVVLT | 0.036 ± 0.32
MFRSRGLMAQRYNFGTQLSY | inactive
YDLLSLGDTTCRHSEILNRP | 0.924 ± 0.63
LSVGKKDS | -0.292 ± 0.23
LYAALIIDYA | 0.681 ± 0.66
FGAFYVGDHG | -1.7 ± 1.3
KPLCLNYKCLYIILVCVGDP | 0.151 ± 0.27
MDNCIISRYMFHMLVTSKVY | 0.996 ± 0.52
SHYSSIVYGAMEDSGL | -1.6 ± 2.4
RLCVVRDRFIGPIRRAFLHP | inactive

Substance | amyloid nucleation score
IRRATF | 0.421 ± 0.84
DMCLWARG | 0.732 ± 1
KEGRPQSTLCNVVRGFREQY | -0.565 ± 0.7
FFGGNSAVVVIRWMSRSGHW | 0.489 ± 0.64
SFFMYLNIRWIWSMCVNAIE | 0.09 ± 0.58
CIIVVSTRAADPDLCSYIML | 0.234 ± 0.75
QAKLPLTIDCMKCGTVGTGR | -0.16 ± 0.34
ERTMGLSVMWAIECCLRNPG | 2.05 ± 0.24
DYSVYRSERMCTLRAS | -0.279 ± 0.36
NGSRYLANYSQS | 0.23 ± 0.36
IVVNLGWFQIGIYLPARSDT | -1.24 ± 1.9
LSYCVIG | inactive
VTFFHFSQGR | 4.79 ± 0.057
LARDRFTYLAASYPFTPSRA | -0.761 ± 1.7
MITARSLSPRIFRAESAYSE | 0.117 ± 0.36
GPSVPLGVFEKKTAFLKKTL | -0.328 ± 0.79
GWDYLFFLFTFCYV | -0.771 ± 1.1
WGVFDTETIVWFVYIGTL | -0.026 ± 0.32
WFYDAAFTMKVTVAIFVFFR | 0.675 ± 0.71
LAHLCINIVSKCSNSWTIGT | 0.55 ± 0.57
SHPRTYPWDSTDFVWLS | -0.549 ± 1.2
AANGCASSV | -0.856 ± 0.44
ENGIGN | 0.453 ± 0.22
LSNFLHCG | 0.907 ± 0.4
CNCMVLSPLDVMEPIAMGFQ | 0.455 ± 1.4

Substance | amyloid nucleation score
LLQNNCHLYYCLNGLVFRVR | 0.162 ± 0.32
CDGRW | 0.186 ± 0.3
NSRNDLVMLILLPSSRAGRL | 0.325 ± 0.99
MNRVDLCVNA | 0.438 ± 0.38
EVSIFGDRIHIELHLVGEVL | -1.12 ± 2.1
IAMSSYPLD | 1.02 ± 1.1
LLVVRLNVCRRHMDFKYG | -0.419 ± 0.39
TACPNSGNFERYGHYRSSSA | 1.12 ± 0.58
ALLIAY | -0.992 ± 0.59
FLQNMSVILTIMNDIKIMED | 6.161 ± 0.047
LKRVQCNSDRAMWCVALVLT | 0.314 ± 0.59
VFLRL | 4.48 ± 0.1
QLAERTGVHCSQFTKWFFKM | 1.72 ± 0.38
NCYSRDRSWGLDVVRYVVWW | -0.329 ± 1.6
PDGPANSSKDGDFCDKLR | 1.4 ± 0.6
PYGIGIFNYLWATGMNLSQA | -0.071 ± 0.43
GKRIYPWVLNRSH | -0.209 ± 0.28
DHYYVVAFFRQLWRCCLFRV | inactive
RVNYIHD | -0.057 ± 0.46
MLPMLQPTLQET | 0.313 ± 0.42
HVNFNKGRMGGADSAVRCWW | -1.52 ± 1.8
GSWCSRIK | 0.958 ± 0.35
EHLVHLYKFSSAFERVGW | -0.352 ± 0.7
FLEFAYVVFKILEKNGGLSY | -1.56 ± 0.86
PNIEPCLSSFVSKSLDDPRT | -0.127 ± 0.37

Substance | amyloid nucleation score
LFTTFNNLISVFTVVLNSNQ | 6.79 ± 0.076
MLPRPVRPVGGTRWESGVKL | 0.548 ± 0.3
SLSRCMIYDYR | inactive
VWVLPRDNVFSIKNYMSFS | 6.965 ± 0.045
VIHGC | -0.14 ± 0.27
MMSPLKR | inactive
GPPSLYTWTAYCELSRRPEG | 0.515 ± 0.66
MVLDLVRRNAQL | -0.151 ± 0.68
LWYCTSSNNCDCSAAIIVNT | 4.19 ± 0.1
LLVKNHMRSQEWPLKNSLTN | -1.24 ± 2.4
IRRYPAFFFNVYPSTSMFCS | -1.21 ± 0.88
TFLIFDLN | 4.56 ± 0.062
FLFFRS | 4.62 ± 0.086
SGQPMIPGTCDNWNWRDYFT | 6.04 ± 0.09
CMWWSCGSNIVYVALLMWCH | -0.191 ± 0.4
SIRLHS | 2.65 ± 0.31
QRSLLDDRYNAICSSNTNVE | 0.184 ± 0.35
ACLCVIRMFHYNGLRH | 0.576 ± 0.76
TKCIINEIVDDG | -1.35 ± 2.4
DIITFHYLRTARLKGRYLFI | inactive
LVMRRKYLVNSNTLCSFGLH | inactive
ADTLFPLDHPVINFSPFIVL | 5.789 ± 0.05
MKSFSMLPYIIVFRYY | 0.823 ± 0.85
RLLFLFVHVSYGI | 0.014 ± 0.47
CRTCGFPLLYSAELVLEVC | 0.018 ± 0.45

Substance | amyloid nucleation score
SYNMTITACSNGFPEQRDT | 0.062 ± 0.73
NSMSNF | -1.08 ± 2.4
GRTLVLDFTHHPPILRVPLR | 0 ± 0.48
LVDCMALLNRYTSRIMDNC | -1.07 ± 0.8
ILICKLHRRVIRGWNFRSDR | 0.086 ± 0.48
YCGKR | 1.12 ± 0.58
LSTGWESNLEGCCENWGGLK | -0.499 ± 0.29
WNLATMVADRSPRNKLWTRP | 0.397 ± 0.97
LWCVLHDVGGGSYSLDRYTG | 0.379 ± 0.83
LRGEDNLLWCVISMTL | inactive
SRVEWEDVYENVGGKGTSRE | -0.087 ± 0.44
YCQSSWMSSFSTEFHKARLN | 0.43 ± 0.39
NLLVCGVLRNCVSGTMF | 0.312 ± 1.2
SVLTGNVTGDDGLCKSSIYA | 0.515 ± 0.34
ETSPF | -0.03 ± 0.76
AFIDDRAVTCCYQTVLLCER | -0.341 ± 0.48
RPNMVNVKNSRRFSL | 0.257 ± 0.48
LSYSWADSAPLCCTPMRGRG | -0.324 ± 0.37
NNVLCSGKMGRLCVGCIMPC | -0.507 ± 1.5
YCEYASVVLFGTELCFAWVY | 0.001 ± 0.73
MDSTHSIPCHLNVFL | -0.475 ± 0.58
KWNLGYIYMYRATIK | 1.44 ± 0.84
LSPGYSHTN | -0.423 ± 0.6
FRALKLEAIPAKVGAPYLVP | 0.045 ± 0.4
LCPGNMLLLITDQYSNWEEI | 0.068 ± 0.3

Substance | amyloid nucleation score
LSFCDTQRMWSSDG | 0.483 ± 0.85
CIVVTLYSIMFRDGS | inactive
SVELGSGLMMWGTNSKLTVV | 0.649 ± 0.76
ILHLLRFNDIAFVKRLSAVL | -0.067 ± 0.17
PFGGDFTF | 0.187 ± 0.24
GNTSMILSPA | -0.511 ± 1.1
TTFVSASSMRRYRCLSLGAC | 0.659 ± 0.85
SFHWQKGSSSYTVSPHSAKL | 0.239 ± 0.26
YCGMCVYLISYMATFNCYYY | 3.54 ± 0.1
LLSPLTRLYFRKFFSVGKAW | 0.353 ± 1.2
MLGYIHAEVHVIVSWNLCLK | -0.378 ± 0.53
CIRVSIVID | 0.215 ± 0.38
DWMFCTYCVTVFESQNVAVH | 0.272 ± 0.27
VFSVAGASCCRRIGSCWLLR | 0.687 ± 0.97
YGLPFHVPACCAYLVVCKGR | -0.018 ± 0.54
CKRTSDPCHIVECFLPFHVL | 0.315 ± 0.85
IGRRDWH | 0.925 ± 0.49
MASHGDWGCSNRVFLFPHCR | -2.08 ± 1.9
PRSDNSFSVQVEFVDICEVK | -0.437 ± 0.56
AYTEMNLRIVERYSMNTIRP | 2.14 ± 0.26
QLEDAVKMGLVEFEGRSHGS | 0.78 ± 0.29
LSQLN | -0.116 ± 0.26
